Test results as given in publication PMC9600955.

Biological target: LapD2 purified in isolation (Streptococcus intermedius GC1825)
Assay: crystal structure; LapD2 at 10 mg/mL, hanging drop, 0.2 M lithium sulfate, 0.1 M Tris-HCl pH 8.0, 30% PEG 4000; SAD phasing, native data to 2.20 Å

LapD2 purified in isolation (natural protein)
stoichiometry N: 2
